From US20220008545A1 (Bicycle, published 2022)
Starred links: 1 amine or outer side, 2 acyl side, 3 side chain; linkers in the order of their positions; H or OH if unused. Positions of bridges follow the written chain, without caps; N, C: chain ends. No end group written: not given here. TBMB = c1c(C[*:1])cc(C[*:3])cc1C[*:2]

T1: fibroblast activation protein α (FAPα) (UniProt Q12884 26-760, limits assumed)
T1 sequence (looked up): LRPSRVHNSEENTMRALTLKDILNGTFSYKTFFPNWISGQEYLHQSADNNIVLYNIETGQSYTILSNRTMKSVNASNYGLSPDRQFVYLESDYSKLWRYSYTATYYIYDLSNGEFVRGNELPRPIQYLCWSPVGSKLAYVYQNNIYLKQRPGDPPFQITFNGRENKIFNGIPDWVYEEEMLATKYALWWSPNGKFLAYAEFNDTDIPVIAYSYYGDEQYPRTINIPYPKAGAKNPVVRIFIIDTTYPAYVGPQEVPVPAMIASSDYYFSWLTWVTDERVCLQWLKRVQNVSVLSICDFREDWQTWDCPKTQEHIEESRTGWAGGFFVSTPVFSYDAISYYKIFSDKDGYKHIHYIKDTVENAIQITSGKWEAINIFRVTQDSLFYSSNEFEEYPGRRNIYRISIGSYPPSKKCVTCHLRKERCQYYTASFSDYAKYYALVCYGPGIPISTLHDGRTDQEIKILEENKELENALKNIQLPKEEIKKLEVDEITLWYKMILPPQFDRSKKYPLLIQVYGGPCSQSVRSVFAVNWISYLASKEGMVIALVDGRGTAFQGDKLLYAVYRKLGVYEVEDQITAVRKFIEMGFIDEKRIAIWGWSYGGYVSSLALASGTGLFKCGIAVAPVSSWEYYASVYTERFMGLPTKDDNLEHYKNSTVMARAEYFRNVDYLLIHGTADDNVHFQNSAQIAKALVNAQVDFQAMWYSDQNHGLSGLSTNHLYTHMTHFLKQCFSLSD

B1: A-(SEQ ID NO: 3)-A (peptide)
peptide: ACPPTEYDCLIFFSECA
modifications: linker 2-9-16 via TBMB
notes: all L-amino acids; also called CiPPTEYDCiiLIFFSECiii with N- and C-terminal Ala
B2: A-(SEQ ID NO: 1)-A (peptide)
peptide: ACHSDYLICPYGDFFCA
modifications: linker 2-9-16 via TBMB
notes: all L-amino acids; also called CiHSDYLICiiPYGDFFCiii with N- and C-terminal Ala

These binders were tested against T1, fibroblast activation protein α (FAPα) (assay: cell-based or functional assay).
B1 was tested, and the “FAPα Enzyme Inhibition IC50” value was 5760 nM. ACDDCLISMRDACA (linker 2-5-13 via TBMB, all L-amino acids) [A-(SEQ ID NO: 4)-A] was tested, and the “FAPα Enzyme Inhibition IC50” value was 16700 nM. In the case of ACTDCDTDSLIYCA (linker 2-5-13 via TBMB, all L-amino acids) [A-(SEQ ID NO: 2)-A], the “FAPα Enzyme Inhibition IC50” value is reported as over 50000 nM. For B2, the “FAPα Enzyme Inhibition IC50” value was 1330 nM.

These binders were tested against T1, fibroblast activation protein α (FAPα) (assay: fluorescence polarization FAPα binding assay).
Protocol: FAPα binding was measured using the fluorescence polarization assay methodology described in Yanagisawa et al (1997) J Biol Chem 272(13), 8539-8545. FAPα enzyme inhibition was measured using the assay methodology described in Poplawski et al (2013) J Med Chem 56(9), 3467-3477.
A Ki of 578 nM was found for B1 in this work. A Ki of 1720 nM was found for ACDDCLISMRDACA (linker 2-5-13 via TBMB, all L-amino acids) [A-(SEQ ID NO: 4)-A] in this work. A Ki of 4520 nM was found for ACTDCDTDSLIYCA (linker 2-5-13 via TBMB, all L-amino acids) [A-(SEQ ID NO: 2)-A] in this work. A Ki of 113 nM was found for B2 in this work.
